Read-outs that look alike come from different tables or passages of the source.
Experiments:
porcine TSH receptor [1] = target: T1, porcine TSH receptor (porcine, UniProt Q8SPP9 22-764, limits assumed); assay: competition ELISA; displacement of biotinylated rhTSH from immobilized porcine TSH receptor
T1 construct: Bought, coated on kit plates; the construct is not described; also called immobilized porcine TSH receptor
Method: (§1) Purified PEGylated conjugates were analyzed by in vitro porcine TSH receptor binding assay using the TSH Receptor Autoantibody 2nd Generation ELISA kit from RSR Limited (Kronus, Star, Id.). Instead of using the biotinylated human monoclonal autoantibody to the TSH receptor provided by the kit, we biotinylated Thyrogen® (rhTSH) to use for competitive inhibition of binding to TSH receptor. Binding of biotinylated rhTSH to immobilized porcine TSH receptor was inhibited by either rhTSH control or PEGylated rhTSH conjugates and IC₅₀ values were measured.
(§2) Thyrogen® was biotinylated with 1.7 to 1.8 biotins per protein using the ChromaLink™ Biotin Labeling Reagent according to the manufacturer's protocol (QED Bioscience Inc., San Diego, Calif.) and buffer exchanged into 50 mM sodium phosphate, 150 mM sodium chloride pH 7.0 with a Zeba™ Desalt Spin Column (Thermo Scientific, Rockford, Ill.). In vitro measurement of receptor binding was performed by competition of biotinylated Thyrogen® and PEG-rhTSH conjugate for binding to porcine TSH receptor immobilized onto 96-well plates supplied with the TSH Receptor Autoantibody 2nd Generation ELISA kit from RSR Limited (Kronus, Star, Id.). PEG-rhTSH conjugates were serially diluted 1:5 from 16 μM to 41 pM in assay buffer (100 mM HEPES pH 7.5, 20 mM EDTA, 1% BSA, 0.5% Triton X-100) and mixed 1:1 with biotinylated Thyrogen® diluted 1000-fold in assay buffer. The mixture was added to each receptor-coated well and incubated at 25° C. for 25 minutes. Unbound rhTSH was washed away and streptavidin peroxidase was added at 25° C. for 20 minutes according to the RSR Limited ELISA protocol to determine the amount of biotinylated Thyrogen® bound to the plate. The plate was then washed three times to remove excess unbound streptavidin peroxidase and then tetramethylbenzidine (TMB) was added to each well and incubated in the dark at 25° C. for 30 minutes. The reaction which was quenched with 0.5M sulfuric acid stop buffer and the absorbance of each well was read at 450 nm using a SpectraMax® 340pc plate reader (Molecular Devices, Sunnyvale, Calif.). The data was fit using a sigmoidal dose response equation with GraphPad Prism software to generate IC₅₀ values.

porcine TSH receptor [2] = target: T1, porcine TSH receptor; assay: as above; remark: listed apart in the source
Method: as §1, §2

porcine TSH receptor [3] = target: T1, porcine TSH receptor; assay: in vitro TSH receptor binding assay (competition ELISA)

T1 sequence (Q8SPP9 22-764 limits assumed): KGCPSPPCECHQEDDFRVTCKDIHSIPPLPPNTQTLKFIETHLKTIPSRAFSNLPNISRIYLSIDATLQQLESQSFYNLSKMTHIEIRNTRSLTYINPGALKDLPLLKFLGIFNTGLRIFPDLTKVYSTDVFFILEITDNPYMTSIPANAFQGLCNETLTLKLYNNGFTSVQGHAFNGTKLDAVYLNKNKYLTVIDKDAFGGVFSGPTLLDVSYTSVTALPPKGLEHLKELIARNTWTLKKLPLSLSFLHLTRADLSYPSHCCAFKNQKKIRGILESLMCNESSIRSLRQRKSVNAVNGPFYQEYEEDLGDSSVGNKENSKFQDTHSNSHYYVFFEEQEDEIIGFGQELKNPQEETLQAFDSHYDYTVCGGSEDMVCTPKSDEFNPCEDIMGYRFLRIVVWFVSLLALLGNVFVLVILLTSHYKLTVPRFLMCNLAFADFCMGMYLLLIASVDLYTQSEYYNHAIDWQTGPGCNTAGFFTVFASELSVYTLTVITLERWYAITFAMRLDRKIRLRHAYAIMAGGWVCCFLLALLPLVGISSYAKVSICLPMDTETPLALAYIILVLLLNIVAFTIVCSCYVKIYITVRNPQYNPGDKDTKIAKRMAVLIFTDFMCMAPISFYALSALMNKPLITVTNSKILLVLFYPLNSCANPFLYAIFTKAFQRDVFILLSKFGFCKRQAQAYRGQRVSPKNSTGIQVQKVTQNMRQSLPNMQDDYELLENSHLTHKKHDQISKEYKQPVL

B1: 40 kD monoSAM PEGylated rhTSH (ligand)
chain 1: not shown
chain 2: FCIPTEYTMHIERRECAYCLTINTTICAGYCMTRDINGKLFLPKYALSQDVCTYRDFIYRTVEIPGCPLHVAPYFSYPVALSCKCGKCNTDYSDCIHEAIKTNYCTKPQKSY
modifications: see alpha chain; glycan at ASN23 is a possible PEG site; one 40 kD aminoxy PEG per protein on periodate-oxidized sialic acid of an N-linked glycan (ASN52 or ASN78 of alpha, or ASN23 of beta); 58% of the conjugate modified on the alpha subunit
notes: Sialic acid-mediated (SAM) monoPEGylation of rhTSH; also called 40 kD SAM; mono-40 kDa aminoxy PEG-TSH (SAM PEGylation)
IC50 (porcine TSH receptor [1]): 0.196 µM | fold change (IC50 against rhTSH) (porcine TSH receptor [1]): 5.3 fold

B2: 40 kD GAM- PEGylated rhTSH (ligand)
chain 1: not shown
chain 2: FCIPTEYTMHIERRECAYCLTINTTICAGYCMTRDINGKLFLPKYALSQDVCTYRDFIYRTVEIPGCPLHVAPYFSYPVALSCKCGKCNTDYSDCIHEAIKTNYCTKPQKSY
modifications: see alpha chain; glycan at ASN23 is a possible PEG site; one 40 kD aminoxy PEG per protein on galactose oxidase-oxidized galactose of an N-linked glycan (ASN52 or ASN78 of alpha, or ASN23 of beta); 77% of the conjugate modified on the alpha subunit
IC50 (porcine TSH receptor [1]): 0.294 µM | fold change (IC50 against rhTSH) (porcine TSH receptor [1]): 8 fold

B3: 10 kD multiSAM PEGylated rhTSH (ligand)
chain 1: not shown
chain 2: FCIPTEYTMHIERRECAYCLTINTTICAGYCMTRDINGKLFLPKYALSQDVCTYRDFIYRTVEIPGCPLHVAPYFSYPVALSCKCGKCNTDYSDCIHEAIKTNYCTKPQKSY
modifications: see alpha chain; glycan at ASN23 is a possible PEG site; more than one 10 kD aminoxy PEG per protein on periodate-oxidized sialic acid of the N-linked glycans (ASN52, ASN78 of alpha; ASN23 of beta); split between sites not stated
IC50 (porcine TSH receptor [1]): 0.138 µM | fold change (IC50 against rhTSH) (porcine TSH receptor [1]): 3.8 fold

B4: 40 kD Lysine mono-PEGylated rhTSH (ligand)
chain 1: not shown
chain 2: FCIPTEYTMHIERRECAYCLTINTTICAGYCMTRDINGKLFLPKYALSQDVCTYRDFIYRTVEIPGCPLHVAPYFSYPVALSCKCGKCNTDYSDCIHEAIKTNYCTKPQKSY
modifications: see alpha chain; one 40 kDa NHS PEG per protein on a lysine; which lysine and subunit are not stated
notes: SEC fraction of the mono-PEGylated species; also called mono-40 kDa NHS PEG-TSH (Lysine PEGylation)
IC50 (porcine TSH receptor [1]): 0.876 µM | fold change (IC50 against rhTSH) (porcine TSH receptor [1]): 31.2 fold | IC50 (porcine TSH receptor [2]): 0.876 µM | fold change (IC50 against rhTSH) (porcine TSH receptor [2]): 31.2 fold

B5: 20 kD GAM+ PEGylated rhTSH (ligand)
chain 1: not shown
chain 2: FCIPTEYTMHIERRECAYCLTINTTICAGYCMTRDINGKLFLPKYALSQDVCTYRDFIYRTVEIPGCPLHVAPYFSYPVALSCKCGKCNTDYSDCIHEAIKTNYCTKPQKSY
modifications: see alpha chain; glycan at ASN23 is a possible PEG site; sialic acid removed with neuraminidase; one 20 kD aminoxy PEG per protein on galactose oxidase-oxidized galactose of an N-linked glycan (ASN52 or ASN78 of alpha, or ASN23 of beta)
IC50 (porcine TSH receptor [1]): 0.0817 µM | fold change (IC50 against rhTSH) (porcine TSH receptor [1]): 2.2 fold

B6: 10 kD monoSAM PEGylated rhTSH (ligand)
chain 1: not shown
chain 2: FCIPTEYTMHIERRECAYCLTINTTICAGYCMTRDINGKLFLPKYALSQDVCTYRDFIYRTVEIPGCPLHVAPYFSYPVALSCKCGKCNTDYSDCIHEAIKTNYCTKPQKSY
modifications: see alpha chain; glycan at ASN23 is a possible PEG site; one 10 kD aminoxy PEG per protein on periodate-oxidized sialic acid of an N-linked glycan (ASN52 or ASN78 of alpha, or ASN23 of beta)
notes: Sialic acid-mediated (SAM) monoPEGylation of rhTSH; also called 10 kD SAM
IC50 (porcine TSH receptor [1]): 0.0781 µM | fold change (IC50 against rhTSH) (porcine TSH receptor [1]): 2.1 fold

B7: 40 kD GAM+ PEGylated rhTSH (ligand)
chain 1: not shown
chain 2: FCIPTEYTMHIERRECAYCLTINTTICAGYCMTRDINGKLFLPKYALSQDVCTYRDFIYRTVEIPGCPLHVAPYFSYPVALSCKCGKCNTDYSDCIHEAIKTNYCTKPQKSY
modifications: see alpha chain; glycan at ASN23 is a possible PEG site; sialic acid removed with neuraminidase; one 40 kD aminoxy PEG per protein on galactose oxidase-oxidized galactose of an N-linked glycan (ASN52 or ASN78 of alpha, or ASN23 of beta); 66% of the conjugate modified on the alpha subunit
IC50 (porcine TSH receptor [1]): 0.133 µM | fold change (IC50 against rhTSH) (porcine TSH receptor [1]): 3.6 fold

B8: 20 kD monoSAM PEGylated rhTSH (ligand)
chain 1: not shown
chain 2: FCIPTEYTMHIERRECAYCLTINTTICAGYCMTRDINGKLFLPKYALSQDVCTYRDFIYRTVEIPGCPLHVAPYFSYPVALSCKCGKCNTDYSDCIHEAIKTNYCTKPQKSY
modifications: see alpha chain; glycan at ASN23 is a possible PEG site; one 20 kD aminoxy PEG per protein on periodate-oxidized sialic acid of an N-linked glycan (ASN52 or ASN78 of alpha, or ASN23 of beta)
notes: Sialic acid-mediated (SAM) monoPEGylation of rhTSH; also called 20 kD SAM
IC50 (porcine TSH receptor [1]): 0.0923 µM | fold change (IC50 against rhTSH) (porcine TSH receptor [1]): 2.5 fold

B9: recombinant human TSH (rhTSH), THYROGEN Thyroid Stimulating Hormone (ligand)
chain 1: not shown
chain 2: FCIPTEYTMHIERRECAYCLTINTTICAGYCMTRDINGKLFLPKYALSQDVCTYRDFIYRTVEIPGCPLHVAPYFSYPVALSCKCGKCNTDYSDCIHEAIKTNYCTKPQKSY
modifications: N-linked carbohydrate chain at ASN23; N-linked carbohydrate chains at ASN52 and ASN78
notes: Heterodimer of alpha and beta subunit; also called TSH control; control TSH, starting material
IC50 (porcine TSH receptor [1]): 0.0367 µM | fold change (IC50 against rhTSH) (porcine TSH receptor [1]): 1 fold | IC50 (porcine TSH receptor [2]): 0.028 µM | fold change (IC50 against rhTSH) (porcine TSH receptor [2]): 1 fold

B10: 40 kD N-terminal mono-PEGylated rhTSH (ligand)
chain 1: not shown
chain 2: FCIPTEYTMHIERRECAYCLTINTTICAGYCMTRDINGKLFLPKYALSQDVCTYRDFIYRTVEIPGCPLHVAPYFSYPVALSCKCGKCNTDYSDCIHEAIKTNYCTKPQKSY
modifications: see alpha chain; one 40 kD aldehyde PEG per protein at an N-terminus (reductive amination); which subunit is not stated
fold decrease of in vitro TSH receptor binding affinity, compared to the rhTSH control (porcine TSH receptor [3]): 11.1 fold | IC50 (porcine TSH receptor [1]): 0.397 µM | fold change (IC50 against rhTSH) (porcine TSH receptor [1]): 10.8 fold | IC50 (porcine TSH receptor [2]): 0.319 µM | fold change (IC50 against rhTSH) (porcine TSH receptor [2]): 11.4 fold

B11: 20 kD GAM- PEGylated rhTSH (ligand)
chain 1: not shown
chain 2: FCIPTEYTMHIERRECAYCLTINTTICAGYCMTRDINGKLFLPKYALSQDVCTYRDFIYRTVEIPGCPLHVAPYFSYPVALSCKCGKCNTDYSDCIHEAIKTNYCTKPQKSY
modifications: see alpha chain; glycan at ASN23 is a possible PEG site; one 20 kD aminoxy PEG per protein on galactose oxidase-oxidized galactose of an N-linked glycan (ASN52 or ASN78 of alpha, or ASN23 of beta)
IC50 (porcine TSH receptor [1]): 0.101 µM | fold change (IC50 against rhTSH) (porcine TSH receptor [1]): 2.7 fold

B12: G22C rhTSH (ligand)
chain 1: not shown
chain 2: FCIPTEYTMHIERRECAYCLTINTTICAGYCMTRDINGKLFLPKYALSQDVCTYRDFIYRTVEIPGCPLHVAPYFSYPVALSCKCGKCNTDYSDCIHEAIKTNYCTKPQKSY
modifications: introduced cysteine found capped after expression and purification
notes: Cysteine mutant without PEG, produced from CHO cells; also called TSH G22C(alpha); G22C(a)
IC50 (porcine TSH receptor [2]): 0.0416 µM | fold change (IC50 against rhTSH) (porcine TSH receptor [2]): 1.5 fold

B13: 60 kD 2-arm PEG G22C rhTSH (ligand)
chain 1: not shown
chain 2: FCIPTEYTMHIERRECAYCLTINTTICAGYCMTRDINGKLFLPKYALSQDVCTYRDFIYRTVEIPGCPLHVAPYFSYPVALSCKCGKCNTDYSDCIHEAIKTNYCTKPQKSY
modifications: 60 kD 2-arm cysteine-reactive PEG on Cys22
IC50 (porcine TSH receptor [2]): 11.3 µM | fold change (IC50 against rhTSH) (porcine TSH receptor [2]): 404 fold

B14: 40 kD 4-arm PEG G22C rhTSH (ligand)
chain 1: not shown
chain 2: FCIPTEYTMHIERRECAYCLTINTTICAGYCMTRDINGKLFLPKYALSQDVCTYRDFIYRTVEIPGCPLHVAPYFSYPVALSCKCGKCNTDYSDCIHEAIKTNYCTKPQKSY
modifications: 40 kD 4-arm cysteine-reactive PEG on Cys22
IC50 (porcine TSH receptor [2]): 0.743 µM | fold change (IC50 against rhTSH) (porcine TSH receptor [2]): 26.5 fold

B15: 50 kD 3-arm PEG G22C rhTSH (ligand)
chain 1: not shown
chain 2: FCIPTEYTMHIERRECAYCLTINTTICAGYCMTRDINGKLFLPKYALSQDVCTYRDFIYRTVEIPGCPLHVAPYFSYPVALSCKCGKCNTDYSDCIHEAIKTNYCTKPQKSY
modifications: 50 kD 3-arm cysteine-reactive PEG on Cys22
IC50 (porcine TSH receptor [2]): 0.281 µM | fold change (IC50 against rhTSH) (porcine TSH receptor [2]): 10 fold

B16: 40 kD linear PEG G22C rhTSH (ligand)
chain 1: not shown
chain 2: FCIPTEYTMHIERRECAYCLTINTTICAGYCMTRDINGKLFLPKYALSQDVCTYRDFIYRTVEIPGCPLHVAPYFSYPVALSCKCGKCNTDYSDCIHEAIKTNYCTKPQKSY
modifications: 40 kD linear cysteine-reactive PEG on Cys22
notes: also called 40 kD linear G22C; 40 kD G22C
IC50 (porcine TSH receptor [2]): 0.248 µM | fold change (IC50 against rhTSH) (porcine TSH receptor [2]): 8.9 fold

B17: 40 kD 2-arm PEG G22C rhTSH (ligand)
chain 1: not shown
chain 2: FCIPTEYTMHIERRECAYCLTINTTICAGYCMTRDINGKLFLPKYALSQDVCTYRDFIYRTVEIPGCPLHVAPYFSYPVALSCKCGKCNTDYSDCIHEAIKTNYCTKPQKSY
modifications: 40 kD 2-arm cysteine-reactive PEG on Cys22
IC50 (porcine TSH receptor [2]): 0.417 µM | fold change (IC50 against rhTSH) (porcine TSH receptor [2]): 14.9 fold

B18: 60 kD 4-arm PEG G22C rhTSH (ligand)
chain 1: not shown
chain 2: FCIPTEYTMHIERRECAYCLTINTTICAGYCMTRDINGKLFLPKYALSQDVCTYRDFIYRTVEIPGCPLHVAPYFSYPVALSCKCGKCNTDYSDCIHEAIKTNYCTKPQKSY
modifications: 60 kD 4-arm cysteine-reactive PEG on Cys22
IC50 (porcine TSH receptor [2]): 4020 µM | fold change (IC50 against rhTSH) (porcine TSH receptor [2]): 144000 fold

— patent US20180326082A1 (Sanofi, published 2018)
